Assay results published in the supplement of paper PMC9170038.

Test system: MS2 coat protein
Assay: apparent KD of MS2 coat protein; designed switch direction (-1 OFF switch, 1 ON switch): -1; higher = weaker reporter binding
In short: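 An oligonucleotide input, 200 uM small-molecule ligand, or no input was present during titration of SNAP-549-labelled MS2 coat protein, which was doubled from 0.7 or 1.5 nM to 3 µM. Designed RNA switches had been transcribed on Illumina chips by stalled E. coli RNA polymerase. Apparent KD per design is the median over clusters of curves fitted to normalised cluster fluorescence.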

[1] = input ligand: microRNA oligo, concentration not stated
[2] = Eterna round: R95, input ligand: microRNA oligo, concentration not stated

Sequence	apparent KD of MS2 coat protein (input ligand: FMN 200 uM) [nM]	apparent KD of MS2 coat protein [1] [nM]	apparent KD of MS2 coat protein (input ligand: none) [nM]	also measured
AUGUGAUUGGCUCUGAGACAUGAGGAUCACCCAUGUGGAGCGCAGGAUAUCCGAACCGUGAAGGCGGAGAAGGGCGUCGUGGUA [Zasorequer] (Eterna round: R96, puzzle: Exclusion NG 3)	39.6	20.5	26	–
AUGUGGGUAAGAAGGUGAAGAUAGAGCGUACGUUAUGGAACAUGAGGAUCACCCAUGUAGCUUUUUGCUCGUCUUAU [JR_SV3TOV2_Sub033] (puzzle: Sensor v3, turn-off variant 2)	–	–	–	apparent KD of MS2 coat protein (Eterna round: R95, input ligand: FMN 200 uM): 17.6 nM; apparent KD of MS2 coat protein [2]: 61.8 nM; apparent KD of MS2 coat protein (Eterna round: R95, input ligand: none): 18.2 nM
AUGUUACUCUGAGGAUAUUGUUUAUUCUUCUCACAUGAGGAUCACCCAUGUUUCCAUGUUAACCGCAAGAAGGCAGUUUUGUUU [JR_ExcNG2_Sub029] (Eterna round: R96, puzzle: Exclusion NG 2)	46.1	24.5	36.3	–
AUUAAUCAGCAGGAUAUAAGUAUCUGAAGGUGGUUAGAAGGGCUGACAUGAGGAUCACCCAUGUGCUCUUCGUG [Vevetigeat] (puzzle: Exclusion 6)	–	–	–	apparent KD of MS2 coat protein [2]: 12.4 nM
AUUAUAAAUGUAGGAUAUCUGCACGUGUAGUGCAGAGAAGGACAUGAGGAUCACCCAUGUAGAUCAAUAAUAAUUAAUUUAAUU [ENG1/5-B3] (Eterna round: R96, puzzle: Exclusion NG 1)	223	33.4	49.2	–
AUUAUGUUAGGAUAUGCUUAUGGUGGAUAGUCCAGUAUGGUGCAGAAGGGACAUGAGGAUCACCCAUGUGCUGA [EX4 #32] (Eterna round: R97, puzzle: Exclusion 4)	50.9	–	52.8	–
AUUGAAUGAAACCUCUAAUACAUGAGGAUCACCCAUGUUAUCGAGGAUAUGCAGAAUAGAUUAGAGCAGAAGGCGAAGUAAUAU [JR_ExcNG3_Sub024] (Eterna round: R96, puzzle: Exclusion NG 3)	17.7	9.67	12.8	–
AUUGACUGAGGAUAUUGUACUGCUGACAUGAGGAUCACCCAUGUAUGUUAACUCGGCCGUCGAGAAGGCAGAAAUG [BotMod 21 - Jieux - Exclusion 5] (Eterna round: R97, puzzle: Exclusion 5)	18.4	–	34.8	–
AUUGAUGUUGAGGAUAUGCUUUUAUUUAUUCUUGCAGAAGGCGAUACAUGAGGAUCACCCAUGUUCAUGGAAGU [JR_E6_Sub091] (puzzle: Exclusion 6)	–	–	–	apparent KD of MS2 coat protein [2]: 30.7 nM
AUUGGUUUGCGAGGAUAUGCUAAUAGUAAGUAUGCAGAAGGCGCGUUACAUAGAACCUCUAGUUACAUGAGGAUCACCCAUGUU [JR_ExcNG1_Sub038] (Eterna round: R96, puzzle: Exclusion NG 1)	–	40.9	–	–
AUUGUUUAUGUAGGAUAUGCCUGGCGUGCCUUUGCAGAAGGACAUGAGGAUCACCCAUGUAUUGCGGUCUGCGUUCAGAUCGCA [salish99_ExNG1_r4_032] (Eterna round: R96, puzzle: Exclusion NG 1)	–	25	–	–
AUUUAAUUUAGCGAGAUCACAUGAGGAUCACCCAUGUAUAUAUAGGAUAUCAGCUCGAUUAGAGCUGAGAAGGAUAUAUACCGC [ExNG3/7-A1] (Eterna round: R96, puzzle: Exclusion NG 3)	170	98.7	82	–
AUUUAGAGAGGAUAUAUAAAGUGAAACAUGAGGAUCACCCAUGUAAUUUUAUGGAUGUAAAUAGAAGGCUCAUUUU [Mat - Exclusion 5 - JL mod - D3] (puzzle: Exclusion 5)	–	–	–	apparent KD of MS2 coat protein [2]: 36.5 nM
AUUUAGUGAGGAUAUGGUAACGUUUACAUGAGGAUCACCCAUGUUUCAUGGGACUAGAGACUAGAAGGCACUAACG [JR_Ex5_Sub029] (Eterna round: R97, puzzle: Exclusion 5)	291	–	306	–
AUUUUAAUAUAGGAUAUCGAAUUUAUUAAUUAUCGAGAAGGAUAAACAUGAGGAUCACCCAUGUGGUAUCAUGG [Mat - Exclusion 6 - JL Mod - D38] (puzzle: Exclusion 6)	–	–	–	apparent KD of MS2 coat protein [2]: 226 nM
AUUUUGUCAGGAUAUUAGUAGUAAAUAAAUAAAAUUAUUACUGAGAAGGGACAUGAGGAUCACCCAUGUGUCUU [Salish 062 v9] (Eterna round: R97, puzzle: Exclusion 4)	39.5	–	18.3	–

Sequence	apparent KD of MS2 coat protein (input ligand: FMN 200 uM) [nM]	apparent KD of MS2 coat protein [1] [nM]	apparent KD of MS2 coat protein (input ligand: none) [nM]	also measured
CAAACACUGGUCCAAGCACACAUGAGGAUCACCCAUGUCGCCACAUAGGCGCCGGGAAUUAAGCUUCCGUUCGUCUG [Eternabot (L2) Solution 14] (Eterna round: R97, puzzle: Sensor, turn-off variant 1)	113	–	150	–
CAAAGUUGGUAAGGAUAUCCCACAUUAUUCUGACCCGUGCAAGCUACAUGAGGAUCACCCAUGUGGGAGAAGGUGCGUUAAAGA [Design 1] (Eterna round: R96, puzzle: Exclusion NG 2)	93.4	52	94.3	–
CAAAGUUGGUAAGGAUAUCCUACAUUAUUCUGACCCGUGCAAGCUACAUGAGGAUCACCCAUGUGGGAGAAGGUGCGUUAAAGU [Design 3] (Eterna round: R96, puzzle: Exclusion NG 2)	23.4	17.4	21.7	–
CAACACUGAGGAUAUGCUCGGCCGGUUCUCCGUGCCCAAGUACUUGAGGAUCACCCAAGUAGAAGGCAGUAAAA [Diedar] (Eterna round: R97, puzzle: Exclusion 2)	18.1	–	16	–
CAACUGUGAGGAUAUGGUGAGUAGUGCCUGAGCGCUGCUCACCAGAAGGCACAUGAGGAUCACCCAUGUAUGAC [JL-ex4-2.02 denovo] (puzzle: Exclusion 4)	–	–	–	apparent KD of MS2 coat protein [2]: 38.3 nM
CAAUAGGGAGGAUAUCCAAUAUAUGACAUGAGGAUCACCCAUGUUUCCACUCGUACCUCCGGAGAAGGCCCAUAAG [Ex5 #6] (Eterna round: R97, puzzle: Exclusion 5)	21.3	–	24.1	–
CAAUUCAGAGGAUAUGCGCAUAGAUAAGACUUUUUUUCUUAACAUGAGGAUCACCCAUGUAGAAGGCUGUAACC [Ex2 #63] (Eterna round: R97, puzzle: Exclusion 2)	19.8	–	18.2	–
CACAACAGAGGAUAUACAUGAGGAUCACCCAUGUGUUCCAGCUAGGAGACUAGCAAGUGUAGAAGGCUGUUGUG [Mat - Exclusion 3 - JL Mod - D10] (Eterna round: R97, puzzle: Exclusion 3)	269	–	501	–
CACCGGUGAGACAACAUGAGGAUCACCCAUGUGAACAGCUCACAGGAUAUCCAGGCACGAAAGAAGGAGAAGGGUGGCUGACUC [Veuson] (Eterna round: R96, puzzle: Exclusion NG 3)	17.2	13.6	17.4	–
CACCGUUAACUAGGAUAUAGUACAUGAGGAUCACCCAUGUAAUAAAUGAGAAUUUCGGAUGUAUGCUAGAAGGAGUAAAUCGGC [Ostricism 48 - Jieux - Exclusion NG 2] (Eterna round: R96, puzzle: Exclusion NG 2)	–	45.5	–	–
CACCGUUACAGAGGAUAUGGCACAUGAGGAUCACCCAUGUAAUAAAUGAGAAUUUCGGAUGUAUUCCAGAAGGCUGUAACCGGC [Ostricism 68 - Jieux - Exclusion NG 2] (Eterna round: R96, puzzle: Exclusion NG 2)	41.2	19	35.6	–
CACCGUUACAGAGGAUAUGUUACAUGAGGAUCACCCAUGUAAUAAAUGAGAAUUUCGAAUGUAAUACAGAAGGCUGGAAUCGGC [Ostracism 75 - Jieux - Exclusion NG 2] (Eterna round: R96, puzzle: Exclusion NG 2)	38.3	15.8	21.3	–
CAGAAACAUGAGGAUCACCCAUGUGAGGAUAUGCGUACGUUGUCCGUAGGCGACGUGCGCAGAAGGCACAAAGG [Mat - Mod of JL D84] (puzzle: Exclusion 1)	–	–	–	apparent KD of MS2 coat protein [2]: 111 nM
CAGACCCGCCUUGGUCACAUGAGGAUCACCCAUGUUUAGGUCUAGGAUAUGGCCGUCGAGGACGGCCAGAAGGAGAAUAUCAUG [Eternabot solution 34] (Eterna round: R96, puzzle: Exclusion NG 3)	102	32.1	43	–
CAGCUGAAUGUCAGGAUAUCUAGAGCCUCGGCUCUAGAGAAGGGACAUGAGGAUCACCCAUGUCACUCCAGCUG [BmEx4/3-B2] (Eterna round: R97, puzzle: Brourd's mod of Exclusion 4)	22.4	–	17.8	–
